According to patent publication US20030165468A1, “Regulated vectors for controlling DNA hypermutability in eukaryotic cells” (priority 2002, published 2003):

B1: PMS134: dominant negative mismatch repair protein, expressed from pIRES-PMS134-TK with a C-terminal V5 tag (protein, listed as Homo sapiens)
chain: RGGSGVASMERAESSSTEPAKAIKPIDRKSVHQICSGQVVLSLSTAVKELVENSLDAGATNIDLKLKDYGVDLIEVSDNGCGVEEENFEGLTLKHHTSKIQEFADLTQVETFGFRGEALSSLCALSDVTISTCHASAKVGT
modifications: C-terminal V5 tag

How the values were obtained:
[1] = tested on: cells expressing the HSV-TK gene product; experiment: Negative selection with ganciclovir of cultures containing pIRES-PMS134-TK; type: cell-based, human; conditions: HEK293 cultures with pIRES-PMS134-TK; ganciclovir for 5 days, then 10 days in growth media alone
Experimental: Once a hypermutable cell line is developed, it can be screened for to identify subclones with novel phenotypes for target discovery and/or product development. Once the subclone with a desired phenotype is identified, it is important to be able to restore the DNA stability within the host cell. In order to accomplish this, one must remove or completely suppress the expression of the mutator gene. Briefly, cultures are grown in the presence of the prodrug ganciclovir (Sigma), which kills cells expressing the HSV-TK gene product for 5 days. After 5 days, cells are grown for 10 days in growth media alone at which time greater than 95% of cells die off. Resistant clones are then picked and expanded in 10 cm petri dishes. Cells are grown for 3 weeks and then a portion is analyzed for PMS134 expression by western blot and RT-PCR. […] Analysis of cells after two months of culture have not observed re-expression of the PMS 134 gene using western or RT-PCR analysis (not shown). […] No de novo instable microsatellites are observed in the GR cells in contrast to the parental IRES-PMS134-TK line as expected.

293 cells = experiment: Microsatellite instability of endogenous loci using the BAT26 diagnostic marker; type: cell-based, human; conditions: PMS134 expressing 293 cells
Experimental: Next, selected clones expressing PMS134 are expanded and analyzed for MMR deficiency using methods as previously described. Briefly, cells containing the pIRES-PMS134-TK vector or control were measured for microsatellite instability of endogenous loci using the BAT26 diagnostic marker as described (Hoang J. M. et al. (1997) Cancer Res. 57:300-303). Cells are harvested and genomic DNA is isolated using the salting out method (Nicolaides, N. C. et al. (1991) Mol. Cell. Biol. 11:6166-6176). DNAs are diluted by limiting dilution to determine the level of sensitivity of the assay. DNAs are PCR amplified using the BAT26F: 5′-[…]-3′ (SEQ ID NO: 25) and the BAT26R: 5′-[…]-3′ (SEQ ID NO: 26) primers in buffers as described (Nicolaides, N. C. et al. (1995) Genomics 30:195-206). Briefly 1 pg to 100 ngs of DNA is amplified using the following conditions: 94° C. for 30 sec, 58° C. for 30 sec, 72° C. for 30 sec for 30 cycles. PCR reactions are electrophoresed on 12% polyacrylamide TBE gels (Novex) or 4% agarose gels and stained with ethidium bromide.
To measure for microsatellite stability in 293 cells, DNAs were amplified using the reaction conditions above.

| Molecule | cells die off [1] | effect on mismatch repair (MMR) (293 cells; biochemical and genetic manifestations of MMR deficiency) | microsatellite instability (altered BAT26 alleles) (293 cells; no altered alleles in MMR-proficient control cells) |
| --- | --- | --- | --- |
| Nc1nc(O)c2ncn(COC(CO)CO)c2n1 [ganciclovir] | greater than 95% |  |  |
| B1 |  | robust dominant negative effect | a number of alterations |
